This is an account of results in the Immune Epitope Database (IEDB).

For experiment [1], the target named is HLA-A*01:01. Kind of experiment: IEDB peptide-MHC binding, purified MHC/direct/fluorescence; filed as Kd, often an IC50 or EC50 that approximates it; ≥ and ≤ were set here for values at or beyond the usual limits of such assays.
A further experiment addresses HLA-A*02:01. The description is as above.
The target in the next experiment is HLA-A*03:01. The description is as above.
Experiment [2] concerns the target HLA-A*11:01. The experiment is described as above.
Another experiment has as its target HLA-A*24:02. Described as above.
A further experiment concerns the target HLA-A*69:01. Described as above.
The next experiment has as its target HLA-B*07:02. Described as above.
For experiment [3], the target named is HLA-B*15:01. Described as above.
Experiment [4] has as its target HLA-B*27:05. Described as above.
In a further experiment the target is HLA-B*40:01. The experiment is described as above.
A further experiment has as its target HLA-B*44:02. The experiment is described as above.
For the next experiment, the target named is HLA-B*58:01. Described as above.
Experiment [5] concerns the target HLA-A*01:01. The experiment can be described thus: IEDB peptide-MHC binding, purified MHC/competitive/fluorescence; filed as Kd, often an IC50 or EC50 that approximates it; ≥ and ≤ were set here for values at or beyond the usual limits of such assays. The note with it: source organism: Human immunodeficiency virus 1.
A further experiment has as its target HLA-A*02:03. The description is as above.
The target in another experiment is HLA-A*02:06. Described as above. The note with it: source organism: Human immunodeficiency virus 1.
Experiment [6] addresses HLA-A*11:01. The description is as above. The note with it: source organism: Human immunodeficiency virus 1.
In experiment [7] the target is HLA-A*26:02. The experiment is described as above. The note with it: source organism: Human immunodeficiency virus 1.
A further experiment addresses HLA-A*30:01. The experiment is described as above. The note with it: source organism: Human immunodeficiency virus 1.
The target of another experiment is HLA-B*15:17. The description is as above.
Experiment [8] has as its target HLA-B*18:01. The description is as above. The note with it: source organism: Human immunodeficiency virus 1.
Experiment [9] addresses HLA-B*57:01. The experiment is described as above. The note with it: source organism: Human immunodeficiency virus 1.
A further experiment concerns the target HLA-A*32:07. The description is as above. The note with it: source organism: Mycobacterium tuberculosis C.
In a further experiment the target is HLA-B*15:42. Described as above. The note with it: source organism: Mycobacterium tuberculosis C.
The next experiment concerns the target HLA-B*45:06. The experiment is described as above. The note with it: source organism: Mycobacterium tuberculosis C.
In another experiment the target is HLA-B*83:01. The description is as above. The note with it: source organism: Mycobacterium tuberculosis C.
Experiment [10] addresses HLA-B*15:01. The description is as above. The note with it: source organism: Human immunodeficiency virus 1.
The target in experiment [11] is HLA-A*26:02. Kind of experiment: IEDB peptide-MHC binding, purified MHC/direct/fluorescence; filed as Kd, often an IC50 or EC50 that approximates it; ≥ and ≤ were set here for values at or beyond the usual limits of such assays. The note with it: source organism: Picosynechococcus sp. PCC 7002.
The next experiment addresses HLA-A*26:03. Described as above. The note with it: source organism: Picosynechococcus sp. PCC 7002.
Another experiment has as its target HLA-A*31:01. The description is as above.
A further experiment concerns the target HLA-B*08:01. The description is as above.
A further experiment has as its target HLA-B*39:01. Described as above. The note with it: source organism: Picosynechococcus sp. PCC 7002.
A further experiment deals with HLA-B*46:01. Described as above. The note with it: source organism: Bacillus anthracis.
The target in the next experiment is HLA-B*48:01. The experiment is described as above. The note with it: source organism: Bacillus anthracis.
Experiment [12] addresses HLA-B*57:01. Described as above. The note with it: source organism: Bacillus anthracis.
In the next experiment the target is HLA-B*08:02. Described as above. The note with it: source organism: Vibrio cholerae V52.
In a further experiment the target is HLA-B*15:09. The experiment is described as above. The note with it: source organism: Vibrio cholerae V52.
The target in experiment [13] is HLA-B*18:01. The experiment is described as above. The note with it: source organism: Vibrio cholerae.
Experiment [14] has as its target HLA-B*27:05. Kind of experiment: IEDB peptide-MHC binding, purified MHC/competitive/fluorescence; filed as Kd, often an IC50 or EC50 that approximates it; ≥ and ≤ were set here for values at or beyond the usual limits of such assays. The note with it: source organism: Vibrio vulnificus YJ016.
The mark [15] stands for this setting: source organism: Vibrio parahaemolyticus.
Where [16] appears, read: source organism: Human immunodeficiency virus 1.
Where [17] appears, read: source organism: Bacillus anthracis.
Setting [18] is: source organism: Bacillus anthracis str. A0488.
Setting [19] is: source organism: Vibrio cholerae.

For ISDPAFKVF, the Kd with HLA-A*01:01 [1] (setting [15]), in the experiment with HLA-A*02:01 (setting [15]), with HLA-A*03:01 (setting [15]), with HLA-A*11:01 [2] (setting [15]), with HLA-A*24:02 (setting [15]) and with HLA-A*69:01 (setting [15]) was no less than 20000 nM each time. For the same sequence, the Kd with HLA-B*07:02 (setting [15]) was no less than 20000 nM; in the experiment with HLA-B*15:01 [3] (setting [15]), 630 nM; in the experiment with HLA-B*27:05 [4] (setting [15]), no less than 20000 nM; with HLA-B*40:01 (setting [15]), no less than 20000 nM; with HLA-B*44:02 (setting [15]), no less than 20000 nM; with HLA-B*58:01 (setting [15]) it was 17.5 nM.
For KSLFNTIATLY, the Kd with HLA-A*01:01 [5] is 1020 nM; with HLA-A*02:03 (setting [16]) it was 1900 nM; with HLA-A*02:06, 254 nM; with HLA-A*11:01 [6] it was 110 nM; with HLA-A*26:02 [7], no less than 20000 nM; with HLA-A*30:01, no less than 20000 nM. The Kd with HLA-B*15:17 (setting [16]) was determined as 2.2 nM; with HLA-B*18:01 [8], 284 nM; with HLA-B*57:01 [9], 114 nM.
RIRAANLPI: the equilibrium dissociation constant (Kd) with HLA-A*32:07 is 33.3 nM; with HLA-B*15:42, no less than 5000 nM; in the experiment with HLA-B*45:06 it was no less than 5000 nM; with HLA-B*83:01 it was no less than 5000 nM.
On to RSLFNTIATLY, for which the Kd is 1250 nM with HLA-A*01:01 [5]; 728 nM with HLA-A*02:03 (setting [16]); 202 nM with HLA-A*02:06; 255 nM with HLA-A*11:01 [6]; 2150 nM with HLA-A*26:02 [7]; no less than 20000 nM with HLA-A*30:01. Also, the Kd with HLA-B*15:01 [10] turned out to be 711 nM; with HLA-B*15:17 (setting [16]), 3 nM; in the experiment with HLA-B*18:01 [8], 88.6 nM; with HLA-B*57:01 [9] it was 146 nM.
On to DTVLFNAGL, for which the Kd was no less than 20000 nM with HLA-A*01:01 [1] (setting [17]); no less than 20000 nM with HLA-A*02:01 (setting [17]); no less than 20000 nM with HLA-A*03:01 (setting [17]); no less than 20000 nM in the experiment with HLA-A*11:01 [2] (setting [17]); 41 nM with HLA-A*26:02 [11]; 54 nM with HLA-A*26:03. Further, the Kd with HLA-A*31:01 (setting [17]) is no less than 20000 nM; with HLA-A*69:01 (setting [17]) it was no more than 1 nM; with HLA-B*07:02 (setting [17]) it was no less than 20000 nM; with HLA-B*08:01 (source organism: Picosynechococcus sp. PCC 7002) it was no less than 20000 nM; with HLA-B*15:01 [3] (setting [17]) it was no less than 20000 nM; with HLA-B*27:05 [4] (setting [17]) it was no less than 20000 nM. The Kd with HLA-B*39:01, with HLA-B*40:01 (setting [17]), in the experiment with HLA-B*46:01, with HLA-B*48:01, with HLA-B*57:01 [12] and in the experiment with HLA-B*58:01 (setting [17]) was no less than 20000 nM throughout. Further, the Kd in the experiment with HLA-A*02:03 (setting [18]) and in the experiment with HLA-B*15:17 (setting [18]) was no less than 20000 nM each time.
Regarding RVHGATVFK, the dissociation constant Kd was no less than 20000 nM in the experiment with HLA-A*01:01 [1] (setting [19]); no less than 20000 nM with HLA-A*02:01 (setting [19]); 249 nM with HLA-A*03:01 (setting [19]); 47.2 nM in the experiment with HLA-A*11:01 [2] (setting [19]); no less than 20000 nM with HLA-A*24:02 (setting [19]); 59.5 nM with HLA-A*31:01 (setting [19]). Besides, the Kd in the experiment with HLA-A*69:01 (setting [19]), in the experiment with HLA-B*07:02 (setting [19]), with HLA-B*08:01 (source organism: Vibrio cholerae V52), with HLA-B*08:02, with HLA-B*15:01 [3] (setting [19]) and with HLA-B*15:09 was no less than 20000 nM in each case. Besides, the dissociation constant Kd with HLA-B*18:01 [13], in the experiment with HLA-B*27:05 [4] (setting [19]), with HLA-B*40:01 (setting [19]), in the experiment with HLA-B*44:02 (setting [19]) and with HLA-B*58:01 (setting [19]) was no less than 20000 nM throughout.
With QQYTDEAPY, the dissociation constant Kd with HLA-B*27:05 [14] is no less than 20000 nM.

As a reminder, the Kd is a measure of binding affinity in units of concentration. Read a high Kd as a looser complex.
